Our source for the Kd values is patent US20190330277A1.

In general, Kd refers to the free concentration of one partner at which half of the binding sites on the other are occupied at equilibrium, for simple one-to-one binding. Lower therefore signals higher affinity.

The target in this assay is bRSV ATue51908 postF (bovine respiratory syncytial virus, strain ATue51908), P22167. The experiment in a line: biolayer interferometry (Octet), variant on Ni-NTA tip, Fab in solution. The following applies: remark: other sources report otherwise. For orientation: BLI is a label-free optical method that tracks binding on a fibre tip over time.

B1: MPE8 Fab (Fab, V domains shown)
VH: EVQLVESGGGLVKPGGSLRLSCAASGFTFSSYSMNWVRQAPGKGLEWVSSISASSSYSDYADSAKGRFTISRDNAKTSLFLQMNSLRAEDTAIYFCARARATGYSSITPYFDIWGQGTLVTVSS
VL: QSVVTQTPSVSGAPGQRVTISCTGSSSNIGAGYDVHWYQQLPGTAPKLLIYDNNNRPSGVPDRFSASKSGTSASLAITGLQAEDEADYYCQSYDRNLSGVFGTGTKVTVL
The molecule B1 had a Kd greater than 1000 nM.
